In this experiment the test system is primary fetal endothelial cells (ECs) isolated from rat brains. As to the kind of experiment: Trans-endothelial electrical resistance (TEER) of endothelial cell monolayer after oxygen glucose deprivation (OGD). The experiment is classed as cell-based.

Experimental: To assess whether the effects on the BBB integrity are mediated by Annexin A1, we used a recognized model for BBB integrity of primary fetal endothelial cells (ECs) isolated from rat brains at postnatal day 3.
A cellular monolayer of endothelial cells (ECs) was cultured on semipermeable filter inserts (Transwell, 3460 Corning). Trans-endothelial electrical resistance (TEER) was measured as an established quantitative readout for barrier integrity as described before (Srinivasan et al., J. Lab Autom. 2015 (2) 107-126) using an Epithelial Voltohmmeter (EVOM2) with two chopstick electrodes, each containing a silver-silver chloride pellet for measuring voltage and a silver pellet for passing current. Measurements of the resistance in ohm (Ω) across the cell layer were made on the semipermeable membrane by placing one electrode in the upper compartment and the other electrode in the lower compartment. Measurements were performed in duplicate per insert and consistently conducted for several days, 30 minutes after culture media was changed and temperature was kept at 37° C. before and between all measurements. […]
Subsequently TEER was measured in all groups at 1 hour, 3 hours, 6 hours, 12 hours and 24 after normoxia/OGD. […]
At 0 hour, baseline TEER measurements were taken before initiation of OGD. […] TEER in ohms was measured 3 h, 6 h, 12 h and 24 h after treatment. […]

B1: Annexin A1 (protein, UniProt P04083 2-346, looked up)
Annexin A1: AMVSEFLKQAWFIENEEQEYVQTVKSSKGGPGSAVSPYPTFNPSSDVAALHKAIMVKGVDEATIIDILTKRNNAQRQQIKAAYLQETGKPLDETLKKALTGHLEEVVLALLKTPAQFDADELRAAMKGLGTDEDTLIEILASRTNKEIRDINRVYREELKRDLAKDITSDTSGDFRNALLSLAKGDRSEDFGVNEDLADSDARALYEAGERRKGTDVNVFNTILTTRSYPQLRRVFQKYTKYSKHDMNKVLDLELKGDIEKCLTAIVKCATSKPAFFAEKLHQAMKGVGTRHKALIRIMVSRSEIDMNDIKAFYQKMYGISLCQAILDETKGDYEKILVALCGGN
notes: recombinant Annexin A1 protein, preferably of human origin, obtained commercially
For B1, the TEER plateau value (fetal rat brain ECs on Transwell, 4 h OGD then treatment with Annexin A1 3 μM, plateau from 12 h onwards, baseline approx. 150 ohms per insert) was found to be 130 ohms. For the same molecule, the “effect on endothelial resistance / barrier integrity following OGD” value (fetal rat brain ECs, 4 h OGD, Annexin A1 3 μM) was “restores the endothelial resistance and/or barrier integrity”.

The record behind these values is patent publication US20210205409A1, “METHOD FOR THE TREATMENT OF HYPOXIC-ISCHEMIC ENCEPHALOPATHY IN NEWBORNS” (UNIVERSITEIT MAASTRICHT, priority 2018, published 2021).
